From article PMC10630886, “Downregulation of stromal syntenin sustains AML development” (EMBO Molecular Medicine, 2023) come the findings set out here.

For assay [1], the target named is biotinylated peptide corresponding to the last 25 amino acids of endoglin wild-type. The experiment in a line: SPR; BIAcore T200, 25°C; 100 RU of biotinylated endoglin peptide immobilised on a streptavidin chip; His-tagged protein perfused (0.5 to 120 μM) at 30 μl/min in 10 mM HEPES pH 7.4, 150 mM NaCl, 0.005% Tween 20; apparent KD from equilibrium responses, Langmuir isotherm. For orientation: SPR reads the build-up and loss of mass on a sensor chip optically.

In assay [2] the target is T1, 6xHis-tagged GIPC1 construct (UniProt O14908 1-333).
T1 construct: also called recombinant GIPC1; source: recombinant; prepared as described previously (PMID: 27386966)
T1 sequence (looked up): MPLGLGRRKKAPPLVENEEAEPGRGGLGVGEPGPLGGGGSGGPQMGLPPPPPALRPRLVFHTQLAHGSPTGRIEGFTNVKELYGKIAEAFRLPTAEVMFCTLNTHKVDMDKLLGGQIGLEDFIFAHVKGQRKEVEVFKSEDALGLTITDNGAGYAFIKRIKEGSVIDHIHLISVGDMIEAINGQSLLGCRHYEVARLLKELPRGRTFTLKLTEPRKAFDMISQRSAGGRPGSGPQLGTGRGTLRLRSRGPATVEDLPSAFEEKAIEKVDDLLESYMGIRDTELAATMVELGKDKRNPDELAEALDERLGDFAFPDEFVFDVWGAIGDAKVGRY
The assay is described as above. The following applies: both partners purified.

No end group written: not given here.

On to “6xHis-tagged syntenin construct (containing the two PDZ domains and the C-terminal domain) (domain or fragment)”, for which, in assay [1], the Kd was 27.1 µM.

B1: biotinylated peptide corresponding to the last 25 amino acids of endoglin wild-type (peptide)
peptide: SSESSSTNHSIGSTQSTPCSTSSMA
modifications: also: biotinylated, position not given here
notes: endoglin (CD105), last 25 C-terminal amino acids, wild type; also called endoglin cytosolic domain; immobilized peptide corresponding to the last 25 C-terminal amino acids of wild-type endoglin
Turning to B1, in assay [2], the Kd turned out to be 2.4 µM.
